In publication PMC2191977 (The Journal of Experimental Medicine, 1995):
Numbering of substitutions follows the chain as printed.

What was measured:
Test in all cases: flow cytometry on cells
[1] = target: T1, B7 S177A (mouse, UniProt Q00609 38-306, S177A)
T1 sequence (looked up): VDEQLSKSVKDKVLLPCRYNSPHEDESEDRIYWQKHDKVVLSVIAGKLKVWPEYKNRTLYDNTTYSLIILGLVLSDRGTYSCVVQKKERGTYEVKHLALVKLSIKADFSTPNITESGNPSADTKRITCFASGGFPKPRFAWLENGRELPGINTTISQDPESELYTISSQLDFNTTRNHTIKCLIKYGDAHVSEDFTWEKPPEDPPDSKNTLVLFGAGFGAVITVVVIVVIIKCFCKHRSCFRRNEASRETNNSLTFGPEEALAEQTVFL

[2] = target: T2, B7 QD/LE (Q194L, D195E) (mouse, UniProt Q00609 38-306, Q194D195>LE)
T2 sequence (looked up): T1 sequence (looked up) with A140S, Q157L, D158E

[3] = target: T3, B7 QDP/LEH (Q194L, D195E, P196H) (mouse, UniProt Q00609 38-306, Q194D195P196>LEH)
T3 sequence (looked up): T1 sequence (looked up) with A140S, Q157L, D158E, P159H

[4] = target: T4, B7 Y201A (mouse, UniProt Q00609 38-306, Y201A)
T4 sequence (looked up): T1 sequence (looked up) with A140S, Y164A

[5] = target: T5, B7 P172A (mouse, UniProt Q00609 38-306, P172A)
T5 sequence (looked up): T1 sequence (looked up) with P135A, A140S

[6] = target: T6, B7 R175S (mouse, UniProt Q00609 38-306, R175>S (CGC>AGC))
T6 sequence (looked up): T1 sequence (looked up) with R138S, A140S

B1: CD28Ig (Fc fusion, mouse, UniProt P31041 20-150, looked up)
chain: NKILVKQSPLLVVDSNEVSLSCRYSYNLLAKEFRASLYKGVNSDVEVCVGNGNFTYQPQFRSNAEFNCDGDFDNETVTFRLWNLHVNHTDIYFCKIEFMYPPPYLDNERSNGTIIHIKEKHLCHTQSSPKL
In the case of B1, the “% wild-type B7 binding (normalised to anti-B7 mAb 10.16A.1)” value [1] is reported as 63%, the “MF (mean fluorescence, control subtracted)” value (“MF” below) [1] is reported as 40 MF and the “% wild-type B7 binding (normalised to anti-B7 mAb 10.16A.1)” value [2] is reported as 11%. For the same binder, the “MF” value [2] was 3 MF, the “% wild-type B7 binding (normalised to anti-B7 mAb 10.16A.1)” value [3] was 3% and the “MF” value [3] was 1 MF. The “% wild-type B7 binding (normalised to anti-B7 mAb 10.16A.1)” value [4] was 3%, the “MF” value [4] was 1 MF and the “% wild-type B7 binding (normalised to anti-B7 mAb 10.16A.1)” value [5] was 7%. For the same binder, the “MF” value [5] was 2 MF, the “% wild-type B7 binding (normalised to anti-B7 mAb 10.16A.1)” value [6] was 26% and the “MF” value [6] was 15 MF.
